Data from article PMC8808184 (2021).

Assays:
[1] = target: T1, E1 domain of human APLP1 (human, UniProt P51693 50-212, biotin (EZ-Link NHS-PEG4-Biotin, 1:1 molar ratio) where immobilised in BLI); test: BLI
T1 chain: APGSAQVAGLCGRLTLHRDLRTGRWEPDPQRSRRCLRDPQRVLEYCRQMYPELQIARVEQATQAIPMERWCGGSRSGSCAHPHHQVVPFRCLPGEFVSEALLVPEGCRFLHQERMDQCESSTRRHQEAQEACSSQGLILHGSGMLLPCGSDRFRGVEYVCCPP

[2] = target: T2, E1 domain of chicken APP (chicken, biotin (EZ-Link NHS-PEG4-Biotin, 1:1 molar ratio) where immobilised in BLI); test: BLI
T2 chain: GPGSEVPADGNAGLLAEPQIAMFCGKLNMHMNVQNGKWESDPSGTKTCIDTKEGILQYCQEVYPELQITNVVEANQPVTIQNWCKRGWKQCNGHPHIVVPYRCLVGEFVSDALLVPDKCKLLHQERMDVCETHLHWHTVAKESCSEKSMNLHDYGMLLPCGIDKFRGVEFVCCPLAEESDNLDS

B1: FN1–FN3 region of CNTN3 titrated against human APLP1(E1) (domain or fragment)
chain: PPENVKVDEITDTTAQLSWKEGKDNHSPVISYSIQARTPFSVGWQTVTTVPEVIDGKTHTATVVELNPWVEYEFRVVASNKIGGGEPSLPSEKVRTEEAVPEVPPSEVNGGGGSRSELVITWDPVPEELQNGEGFGYVVAFRPLGVTTWIQTVVTSPDTPRYVFRNESIVPYSPYEVKVGVYNNKGEGPFSPVTTVFSAEEEPTVAPSQVSANSLSSSEIEVSWNTIPWKLSNGHLLGYEVRYWNGGGKEESSSKMKVAGNETSARLRGLKSNLAYYTAVRAYNSAGAGPFSATVNVTTKKT
B1 was tested, and the Kd [1] was 9.1 µM.

B2: FN1–FN3 region of CNTN5 titrated against human APLP1(E1) and human APLP2(E1) (domain or fragment)
chain: PPGIVIVEEITESTATLSWSPAADNHSPISSYNLQARSPFSLGWQTVKTVPEIITGDMESAMAVDLNPWVEYEFRVVATNPIGTGDPSTPSRMIRTNEAVPKTAPTNVSGRSGRRHELVIAWEPVSEEFQNGEGFGYIVAFRPNGTRGWKEKMVTSSEASKFIYRDESVPPLTPFEVKVGVYNNKGDGPFSQIVVICSAEGEPSAAPTDVKATSVSVSEILVAWKHIKESLGRPQGFEVGYWKDMEQEDTAETVKTRGNESFVILTGLEGNTLYHFTVRAYNGAGYGPPSSEVSATTKKS
B2 gave a Kd [1] of 10.9 µM.

B3: FN1–FN3 region of chicken CNTN4, T751A and V752A (domain or fragment)
chain: GSTGSPPGPPEDVTIDEITDTTAQLSWRPGADNHSPITMYVVQARTPFSVGWQAVSTVPEVIDGKTFTATVVGLNPWVEYEFRVVAANLIGIGEPSRPSENRRTEEALPEVTPANVSGGGGSKSELVITWETVPEELQNGGGFGYVVAFRPFGTISWMQAAVASPDASRYVFRNESLPPFSPYEVKVGVYNNKGEGSFSPVTVVYSAEEEPTRAPITVLARSLSATDIEISWAPPRENQHKGRIQGYEVRCWRHDEKEENARKIRTVGNQTSAKVTNLQGNALYHLAVKAYNTAGTGPSSAMVNVTTKK
Binder B3 has a Kd [2] of 20.9 µM.
